Non-standard residues stand in square brackets, D forms with d. Aib = CC(C)(N)C(=O)O
System: posterolateral spinal fusion of L4-L5
Assay: Posterolateral spinal fusion of L4-L5 in rats: micro-CT and manual palpitation after treatment
Format: in vivo, rat
Conditions: for spinal fusion (micro-CT, manual palpitation): plain collagen matrix, rhBMP-2 10 μg soaked in matrix
Experimental: FIG. 6, panels A-C show three-dimensional reconstructions of micro-CT scans of a posterolateral spinal fusion of L4-L5 in a rat treated with a plain collagen matrix and a compound of SEQ ID NO: 2 for eight weeks. In some embodiments, SEQ ID NO: 2 was dosed (e.g., in rodents) at 33 nmol/kg twice a week. […] In some embodiments, the collagen matrix was applied during surgery. […] In some embodiments, phosphate-buffered saline was dosed at a 1× concentration twice a week in the same volume as SEQ ID NO: 2. […] Scores were assigned 0-5 on osteointegration, density, and bridging of both bilateral spinal fusions in microCT scans of the rats as determined by an individual who was blinded to the treatment and reviewed random samples. The total score is the sum of all five scores combined. […] The density of the scan was assigned based on a standard curve generated by a phantom hydroxyapatite standard set. A bilateral posterolateral lumbar spinal fusion was performed under aseptic conditions using isoflurane as an anesthetic. The skin surrounding the L2-L6 region on the back was shaved and disinfected using a Betadine solution followed by an alcohol pad. A 3-cm incision extending from the L3 to L6 vertebrae was made in the skin in this prepared area. The muscle on the vertebral body between the spinous process and the transverses process was bluntly dissected away from the vertebral body to expose the transverses processes. Using a low-speed burr, the L4 and L5 transverse processes cortical bone was removed in addition to the facia joint between the two vertebrae. The burr removed the surface layer of the bone. This process is known as decortication and was done to allow for direct regeneration of bone tissue. Following decortication, a drug-soaked collagen sponge was placed on each side of the vertebrae. A 5×7.5-mm collagen sponge was soaked to saturation in the drugs for 10 minutes. The collagen sponge (RCM6 membranes from ACE surgical supplies) served as a scaffold to aid in the fusion of the vertebrae. Mineralized collagen scaffolds (supplied by Houston Methodist, Houston, TX) and collagen scaffolds wrapped around anorganic bone granules (InterOss bone granules; SigmaGraft Inc. Biomaterials, Fullerton, CA) were also separately used. The inter-muscle was closed with resorbable sutures. The exterior wound was then sutured closed using a nylon suture. Subcutaneous buprenorphine (0.05-0.1 mg/kg) was then administered directly after the operation and was repeated every 12 hours for the next 3 days post-surgery. Fracture healing was assessed using micro-CT (Scanco Medical Ag or PerkinElmer). The anesthetized animal was scanned for two minutes with the PerkinElmer Quantum FX micro-CT at high resolution with a voxel size of 10 μM at 90 kV and 88 uA and an Al 0.5 mm+Cu 0.06 mm filter. The scanning detector rate was 117 fps. The images were analyzed in ImageJ using the BoneJ package. Morphometric parameters were quantified in an ROI that included just the fracture callus. Trabecular thickness (Tb.Th.), trabecular spacing (Tb. Sp.), total volume (TV), and volume of calcified callus (BV) were calculated. Statistical analysis was performed using a one-way analysis of variance (ANOVA) and a Dunnett's post-hoc analysis with significance reported at the P value of 0.05. All animal experiments were performed in accordance with protocols approved by Purdue University's Institutional Animal Care and Use Committee (IACUC). Rats were scanned in AMI after being anesthetized with isoflurane.

B1: H-AVSEHQLLHDKGKSIQDLRRRELLEKLLxKLHTAEIRATSEVSPNSeeeeeeeeeeeeeeeeeeee (peptide)
chain: H-AVSEHQLLHDKGKSIQDLRRRELLEKLL[Aib]KLHTAEIRATSEVSPNS[dE][dE][dE][dE][dE][dE][dE][dE][dE][dE][dE][dE][dE][dE][dE][dE][dE][dE][dE][dE]
notes: PTHrP fragment conjugated at its C-terminus to a linear peptide of 20 D-glutamic acid residues; x=Aib, e=D-glutamic acid
change of bone graft granules on micro-CT (bone graft matrix, eight weeks): the granules resorb | spinal fusion (manual palpitation) (bone graft matrix, eight weeks, SEQ ID NO: 2 33 nmol/kg twice a week, rhBMP-2 10 μg): no fusion | spinal fusion (micro-CT) (mineralized collagen scaffold, eight weeks of treatment): none of the treatments had fused | mineralization of the scaffolds (micro-CT) (mineralized collagen scaffold, five weeks of treatment, preliminary results): increased the mineralization of the scaffolds more than BMP2 or saline | spinal fusion (micro-CT, manual palpitation) (eight weeks, SEQ ID NO: 2 33 nmol/kg twice a week): Fusion was confirmed | spinal fusion (micro-CT, manual palpitation) (eight weeks, SEQ ID NO: 2 33 nmol/kg twice a week, listed as SEQ ID NO.: 2): fused

Reference: patent US20230390363A1, “Compounds, Compositions and Methods of Use to Treat Spinal Fusions” (PURDUE RESEARCH FOUNDATION, priority 2020, published 2023)
